Test results published in PMC3526273, “A SUMO-interacting motif activates budding yeast ubiquitin ligase Rad18 towards SUMO-modified PCNA” (Nucleic Acids Research, 2012).
Changes are numbered by the printed parent chain. Names and notes keep the numbering of the source. One block for each binder: values may come before it.

Target: T1, GSTPCNA (S. cerevisiae, UniProt P15873 1-258)
T1 construct: PCNA of S. cerevisiae; not shown: GST, N-terminal, kept
T1 sequence (looked up): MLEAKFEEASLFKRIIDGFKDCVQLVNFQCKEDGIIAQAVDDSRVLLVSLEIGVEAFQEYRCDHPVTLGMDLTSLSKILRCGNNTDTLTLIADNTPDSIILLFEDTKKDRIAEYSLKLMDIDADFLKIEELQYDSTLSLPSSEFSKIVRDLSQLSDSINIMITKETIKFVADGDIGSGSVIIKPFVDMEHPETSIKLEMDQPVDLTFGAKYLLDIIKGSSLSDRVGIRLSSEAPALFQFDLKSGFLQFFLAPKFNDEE
Experiment: pull-down; GST-tagged protein immobilised on glutathione Sepharose (1 h, 4°C), binding partner added for 90 min at 4°C in phosphate-buffered saline with 0.05% Triton X-100; three washes; anti-His western blot
Conditions: both partners purified

binding result: binds
B1: HisRad18(1-255) (domain or fragment, S. cerevisiae, UniProt P10862 1-255, looked up)
chain: MDHQITTASDFTTTSIPSLYQLDTLLRCHICKDFLKVPVLTPCGHTFCSLCIRTHLNNQPNCPLCLFEFRESLLRSEFLVSEIIQSYTSLRSSLLDALRIPKPTPVPENEEVPGPENSSWIELISESESDSVNAADDDLQIVATSERKLAKRSMTDILPLSSKPSKRNFAMFRSERIKKKSKPNEQMAQCPICQQFYPLKALEKTHLDECLTLQSLGKKPKISTTFPTESNPHNKSSSRFKVRTPEVDKSSCGET
notes: detected by anti-His western blot; not shown: His6, N-terminal, kept

binding result: binds
B2: HisRad18(1-255) SIM* (L139A, I141A, V142A) (domain or fragment, S. cerevisiae, UniProt P10862 1-255, looked up)
chain: B1 chain with L139A, I141A, V142A
notes: also called SIM* mutant; not shown: His6, N-terminal, kept
